Tests used:
[1] = target: T1, biotin conjugated 24 amino acid peptide of the extracellular loop of mouse EMP2 (mouse, biotin conjugated (position not given)); experiment: ELISA on cognate EMP2 peptide (data not shown)
T1 construct: The EMP2 part is followed by a GSGSK tail; also called mEMP2 peptide; mEMP2
T1 peptide: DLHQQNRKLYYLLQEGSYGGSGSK

[2] = target: T2, biotin conjugated 24 amino acid peptide of the extracellular loop of human EMP2 (human, biotin conjugated (position not given)); experiment: ELISA, diabody titration on hEMP2 peptide on streptavidin plates
T2 construct: The EMP2 part is followed by a GSGSK tail; also called hEMP2 peptide; hEMP2
T2 peptide: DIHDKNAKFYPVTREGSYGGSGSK
Protocol: (§1) 10 μg/mL of biotinylated 24 amino acid peptide (see the phage library selection section above) was coated onto streptavidin-coated 96-well plates (Roche Applied Science, Indianapolis, Ind.) in PBS for 1 hour at room temperature. Plates were then washed with PBS and blocked with 2% milk PBS for 2 hours at 37° C. Expressed phage antibodies or diabodies were added to each well, incubated at room temperature for 1 hour, and washed with 0.05% PBS/Tween three times. Bound antibodies or diabodies were detected with mouse anti-c-Myc (9E10) antibody (Calbiochem, San Diego, Calif.), followed by horseradish peroxidase (HRP) conjugated anti-mouse antibody (BD Bioscience Pharmingen, Franklin Lakes, N.J.) and TMB solution (eBioscience, San Diego, Calif.). Plates were read by microplate reader Model 550 (Bio-Rad, Hercules, Calif.) at 450 nm.
(§2) Specificity and titer of selected diabodies were initially tested by ELISA using plates coated with hEMP2 or mEMP2 peptides. […] Using monovalent scFv products of these two antibodies, the EC₅₀ for cognate EMP2 peptide was >2 μg/mL (data not shown). Thus, divalency contributed to the avidity of the two anti-EMP2 diabodies.

[3] = target: T1, biotin conjugated 24 amino acid peptide …; experiment: ELISA on peptide-coated plates
Protocol: as §1, §2

[4] = target: T2, biotin conjugated 24 amino acid peptide …; experiment: method and target not given; reference is the original scFv
[5] = target: T2, biotin conjugated 24 amino acid peptide …; experiment: ELISA on cognate EMP2 peptide (data not shown)
[6] = target: T2, biotin conjugated 24 amino acid peptide …; experiment: ELISA on peptide-coated plates
Protocol: as §1, §2

[7] = target: T1, biotin conjugated 24 amino acid peptide …; experiment: ELISA, diabody titration on mEMP2 peptide on streptavidin plates
Protocol: as §1, §2

[8] = target: T1, biotin conjugated 24 amino acid peptide …; experiment: method and target not given; reference is the original scFv

B1: KS83 monovalent scFv (scFv)
scFv: MAQVQLVESGGGLVQPGGSLRLSCAASGFTFSSYAMHWVRQAPGKGLEWVAVISYDGSNKYYADSVKGRFTISRDNSKNTLYLQMNSLRAEDTAVYYCARTVGATGAFDIWGQGTMVTVSSSGGGGSGGGGSGGGGSDIVMTQSPSTVSASVGDRVIIPCRASQSIGKWLAWYQQKPGKAPKLLIYKASSLEGWVPSRFSGSGSGTEFSLTISSLQPDDSATYVCQQSHNFPPTFGGGTKLEIKRAAAEQKLISEEDLNGAAHHHHHH
notes: The original scFv before the linker was shortened; also called KS83 scFv
[1]
  EC50: > 2 µg/mL

B2: anti-EMP2 diabody KS49 (other)
chain: MAQVQLVQSGGGVVQPGRSLRLSCAASGFTFSSYAMHWVRQAPGKGLEWVAVISYDGSNKYYADSVKGRFTISRDNSKNTLYLQMNSLRAEDTAVYYCARDRRGRKSAGIDYWGQGTLVTVSSSGGGSDIQMTQSPSSLSASVGDRVTITCQASQDISNYLNWYQQKPGKAPKLLIYAASSLQSGVPSRFSGSGSGTDFTLTISSLQPEDFATYYCLQDYNGWTFGQGTKVDIKRAAAEQKLISEEDLNGAAHHHHHH
notes: Diabody: bivalent dimer of a VH-5 aa linker-VL chain with c-Myc and 6 His tags, made in E. coli TG1; Selected against the hEMP2 peptide; also called K49; anti-hEMP2 diabody
[2]
  EC50: 0.0531 µg/mL
[3]
  binding result: no binding
[4]
  fold increase in binding activity compared to original scFvs: > 20 fold

B3: KS49 monovalent scFv (scFv)
scFv: MAQVQLVQSGGGVVQPGRSLRLSCAASGFTFSSYAMHWVRQAPGKGLEWVAVISYDGSNKYYADSVKGRFTISRDNSKNTLYLQMNSLRAEDTAVYYCARDRRGRKSAGIDYWGQGTLVTVSSGGGGSGGGGSGGGGSDIQMTQSPSSLSASVGDRVTITCQASQDISNYLNWYQQKPGKAPKLLIYAASSLQSGVPSRFSGSGSGTDFTLTISSLQPEDFATYYCLQDYNGWTFGQGTKVDIKRAAAEQKLISEEDLNGAAHHHHHH
notes: The original scFv before the linker was shortened; also called KS49 scFv
[5]
  EC50: > 2 µg/mL

B4: anti-EMP2 diabody KS83 (other)
chain: MAQVQLVESGGGLVQPGGSLRLSCAASGFTFSSYAMHWVRQAPGKGLEWVAVISYDGSNKYYADSVKGRFTISRDNSKNTLYLQMNSLRAEDTAVYYCARTVGATGAFDIWGQGTMVTVSSSSGGGSDIVMTQSPSTVSASVGDRVIIPCRASQSIGKWLAWYQQKPGKAPKLLIYKASSLEGWVPSRFSGSGSGTEFSLTISSLQPDDSATYVCQQSHNFPPTFGGGTKLEIKRAAAEQKLISEEDLNGAAHHHHHH
notes: Diabody: bivalent dimer of a VH-5 aa linker-VL chain with c-Myc and 6 His tags; Selected against the mEMP2 peptide; also called K83; diabody 83
[6]
  binding result: no binding
[7]
  EC50: 0.00932 µg/mL
[8]
  fold increase in binding activity compared to original scFvs: > 20 fold

Reference: patent US20130230527A1 (University of California, published 2013)
